Earlier results on 1 substance are cited in PMC3091359.

pKd: −log10 of the molar value.

In the data set the target is (Pro)renin (Homo sapiens) (UniProt P00797).
Chain of UniProt P00797 (P00797 67-406): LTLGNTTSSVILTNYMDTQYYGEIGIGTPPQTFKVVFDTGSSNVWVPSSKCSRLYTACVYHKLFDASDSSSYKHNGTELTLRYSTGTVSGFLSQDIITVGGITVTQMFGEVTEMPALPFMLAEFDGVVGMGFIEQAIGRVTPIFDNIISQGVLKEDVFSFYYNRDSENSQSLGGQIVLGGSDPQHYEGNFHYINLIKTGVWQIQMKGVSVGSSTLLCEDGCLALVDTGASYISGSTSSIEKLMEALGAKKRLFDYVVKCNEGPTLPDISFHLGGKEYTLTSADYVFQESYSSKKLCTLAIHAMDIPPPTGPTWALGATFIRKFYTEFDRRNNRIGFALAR

The pKd is −log10 of the Kd, conventionally taken in molar units. Consider “(Pro)renin receptor (from UniProt Q6AXS4)”, for which the pKd is 8.43.
